The source of these data is article PMC12148432, “Discovery and biochemical characterization of the D-aspartyl endopeptidase activity of the serine protease LACTB [drawing 1]” (The Journal of Biological Chemistry, 2025).

Substrate in the data set: Cc1cc(=O)oc2cc(NC(=O)[C@@H](CC(=O)O)NC(=O)CCC(=O)O)ccc12
Briefly: AMC fluorescence, kinetic plate-reader assay, initial rates. The data set is classed as biochemical, Homo sapiens. The conditions noted are these: pH 8.0, 30 °C, Tris-HCl, 150 mM NaCl.

B1: 6His-SUMO1-hLACTB (97–547) (hLACTB WT) (Homo sapiens) (protein)
chain: APPCSRCFARAIESSRDLLHRIKDEVGAPGIVVGVSVDGKEVWSEGLGYADVENRVPCKPETVMRIASISKSLTMVALAKLWEAGKLDLDIPVQHYVPEFPEKEYEGEKVSVTTRLLISHLSGIRHYEKDIKKVKEEKAYKALKMMKENVAFEQEKEGKSNEKNDFTKFKTEQENEAKCRNSKPGKKKNDFEQGELYLREKFENSIESLRLFKNDPLFFKPGSQFLYSTFGYTLLAAIVERASGCKYLDYMQKIFHDLDMLTTVQEENEPVIYNRARFYVYNKKKRLVNTPYVDNSYKWAGGGFLSTVGDLLKFGNAMLYGYQVGLFKNSNENLLPGYLKPETMVMMWTPVPNTEMSWDKEGKYAMAWGVVERKQTYGSCRKQRHYASHTGGAVGASSVLLVLPEELDTETINNKVPPRGIIVSIICNMQSVGLNSTALKIALEFDKDRSD
notes: residues 97-547 (putative catalytic domain), N-terminal 6His-SUMO1 fusion kept, expressed in Escherichia coli, Ni-NTA and size-exclusion purified
Regarding B1, the Km was 25.3 ± 2.7 µM and the kcat was 6.02 ± 0.12 s⁻¹.
